The numbers were not newly measured in paper PMC7390727, which cites them from elsewhere.

In data set [1] the target is chemoreceptor C-terminal pentapeptide (Salmonella typhimurium).
For data set [2] the target is unchanged. This is another data set of the same source.

Like-named read-outs stand apart in the source and are kept apart here.

Take CheB (from UniProt P04042): the Kd in data set [1] is 160 µM.
Turning to CheR (from UniProt P07801), the Kd in data set [2] was 2 µM.
